The text below walks through data of the supplement of paper PMC10065799, “High-throughput profiling of sequence recognition by tyrosine kinases and SH2 domains using bacterial peptide display” (eLife, 2023).

The target in one data set is Hck (UniProt P08631). Nature of the data set: phosphorylation enrichment, bacterial display (enrichment ratio); higher = better substrate or ligand; peptides without Tyr show the background.
A further data set deals with FGFR3 (UniProt P22607). The description is as above.
For a further data set, the target named is Jak2 (UniProt O60674). The description is as above.
In another data set the target is Fyn (UniProt P06241). Described as above.
Another data set deals with AncSZ. Described as above.
In the next data set the target is MERTK (UniProt Q12866). The data set is described as above.
Another data set has as its target FGFR1 (UniProt P11362). The description is as above.
The next data set addresses EPHB2 (UniProt P29323). The data set is described as above.
The target in a further data set is EPHB1 (UniProt P54762). The description is as above.
A further data set has as its system Fer (mouse). Described as above.
The subject of a further data set is c-Src. Described as above.
The target in the next data set is Fes (UniProt P07332). Described as above.
Another data set deals with c-Abl (mouse). The data set is described as above.
Another data set addresses c-Src SH2. Nature of the data set: SH2 binding enrichment of the phosphorylated peptide, bacterial display (enrichment ratio); higher = better substrate or ligand; peptides without Tyr show the background.
A further data set has as its target Grb2 SH2 (UniProt P62993). The description is as above.
The next data set addresses SHP2-C SH2. Described as above.
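Wherever SH2 binding enrichment of the phosphorylated peptide, bacterial display is given: peptide library displayed on the E. coli surface as eCPX fusions, selected cells deep-sequenced, score is each peptide's frequency after selection divided by its frequency in the input.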
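Wherever phosphorylation enrichment, bacterial display is given: 11-residue human phosphosite peptides and single-mutation variants displayed on the E. coli surface, counted by deep sequencing, each peptide's frequency after selection divided by its frequency in the unselected input library; frequency after pTyr selection over input frequency; kinase dosed for 20-30% of maximal phosphorylation in three min.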

Sequence of Fes (P07332 whole entry, looked up): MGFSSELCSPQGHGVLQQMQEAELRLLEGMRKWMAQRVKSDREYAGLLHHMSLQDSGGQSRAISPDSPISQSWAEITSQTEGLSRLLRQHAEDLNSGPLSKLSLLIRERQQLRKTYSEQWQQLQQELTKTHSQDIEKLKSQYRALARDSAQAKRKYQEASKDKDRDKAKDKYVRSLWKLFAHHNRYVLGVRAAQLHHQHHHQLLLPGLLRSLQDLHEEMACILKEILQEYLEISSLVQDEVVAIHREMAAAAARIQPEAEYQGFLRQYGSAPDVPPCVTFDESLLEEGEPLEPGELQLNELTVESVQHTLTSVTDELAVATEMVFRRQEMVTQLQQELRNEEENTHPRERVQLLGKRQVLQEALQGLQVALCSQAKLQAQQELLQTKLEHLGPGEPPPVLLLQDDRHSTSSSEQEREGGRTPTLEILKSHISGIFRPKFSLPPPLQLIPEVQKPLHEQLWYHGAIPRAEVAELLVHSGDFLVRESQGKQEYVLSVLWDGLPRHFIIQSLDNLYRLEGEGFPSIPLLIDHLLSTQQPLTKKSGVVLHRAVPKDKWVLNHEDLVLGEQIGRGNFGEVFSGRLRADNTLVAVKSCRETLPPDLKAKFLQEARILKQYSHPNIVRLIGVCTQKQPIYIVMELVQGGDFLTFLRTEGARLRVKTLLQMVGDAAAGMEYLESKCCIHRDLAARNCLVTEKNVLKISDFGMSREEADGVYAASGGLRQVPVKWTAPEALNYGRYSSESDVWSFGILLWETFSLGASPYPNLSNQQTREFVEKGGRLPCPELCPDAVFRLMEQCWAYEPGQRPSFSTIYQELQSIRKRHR
Sequence of FGFR3 (P22607 whole entry, looked up): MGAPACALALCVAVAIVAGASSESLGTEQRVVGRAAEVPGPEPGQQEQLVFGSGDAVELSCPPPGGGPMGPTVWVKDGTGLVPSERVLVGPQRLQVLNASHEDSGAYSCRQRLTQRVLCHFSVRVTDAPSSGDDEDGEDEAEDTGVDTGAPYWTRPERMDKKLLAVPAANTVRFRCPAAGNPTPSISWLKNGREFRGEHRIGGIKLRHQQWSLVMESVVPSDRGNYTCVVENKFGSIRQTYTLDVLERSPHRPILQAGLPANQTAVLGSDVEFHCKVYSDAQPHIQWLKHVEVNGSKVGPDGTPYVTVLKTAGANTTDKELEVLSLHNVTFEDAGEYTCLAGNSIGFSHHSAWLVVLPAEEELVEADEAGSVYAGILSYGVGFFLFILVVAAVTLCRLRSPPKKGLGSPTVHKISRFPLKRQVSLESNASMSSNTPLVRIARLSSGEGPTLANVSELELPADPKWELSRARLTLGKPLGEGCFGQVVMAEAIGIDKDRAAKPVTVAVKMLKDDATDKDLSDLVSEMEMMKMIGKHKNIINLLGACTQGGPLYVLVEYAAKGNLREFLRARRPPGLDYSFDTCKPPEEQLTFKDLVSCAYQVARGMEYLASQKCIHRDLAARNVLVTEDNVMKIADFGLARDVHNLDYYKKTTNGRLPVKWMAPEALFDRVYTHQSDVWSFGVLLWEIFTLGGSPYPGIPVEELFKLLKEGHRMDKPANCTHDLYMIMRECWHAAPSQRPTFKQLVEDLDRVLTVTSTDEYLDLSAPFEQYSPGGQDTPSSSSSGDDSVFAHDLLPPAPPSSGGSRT
Sequence of EPHB1 (P54762 whole entry, looked up): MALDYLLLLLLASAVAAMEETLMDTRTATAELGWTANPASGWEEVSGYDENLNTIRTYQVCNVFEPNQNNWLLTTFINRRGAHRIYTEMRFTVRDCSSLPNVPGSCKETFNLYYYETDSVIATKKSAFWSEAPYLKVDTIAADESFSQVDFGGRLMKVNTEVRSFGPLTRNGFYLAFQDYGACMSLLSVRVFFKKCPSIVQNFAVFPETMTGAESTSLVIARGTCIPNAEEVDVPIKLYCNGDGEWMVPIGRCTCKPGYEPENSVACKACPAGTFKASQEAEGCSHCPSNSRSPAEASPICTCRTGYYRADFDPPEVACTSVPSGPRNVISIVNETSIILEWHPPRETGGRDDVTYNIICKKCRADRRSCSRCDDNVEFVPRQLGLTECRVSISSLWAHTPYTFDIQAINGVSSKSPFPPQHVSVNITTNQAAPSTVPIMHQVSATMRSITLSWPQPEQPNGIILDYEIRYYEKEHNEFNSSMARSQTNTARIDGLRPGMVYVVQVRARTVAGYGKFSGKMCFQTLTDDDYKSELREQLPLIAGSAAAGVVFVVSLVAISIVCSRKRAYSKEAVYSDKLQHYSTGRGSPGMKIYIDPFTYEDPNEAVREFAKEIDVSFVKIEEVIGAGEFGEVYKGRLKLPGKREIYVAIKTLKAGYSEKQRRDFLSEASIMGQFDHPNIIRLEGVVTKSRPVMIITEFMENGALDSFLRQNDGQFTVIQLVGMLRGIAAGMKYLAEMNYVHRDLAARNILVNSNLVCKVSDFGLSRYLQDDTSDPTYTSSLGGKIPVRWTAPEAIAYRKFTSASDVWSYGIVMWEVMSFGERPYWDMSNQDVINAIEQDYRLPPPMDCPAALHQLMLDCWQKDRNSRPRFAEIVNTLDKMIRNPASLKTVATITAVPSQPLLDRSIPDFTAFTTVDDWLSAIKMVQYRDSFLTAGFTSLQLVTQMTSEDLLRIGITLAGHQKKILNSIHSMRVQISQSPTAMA
Sequence of Fyn (P06241 whole entry, looked up): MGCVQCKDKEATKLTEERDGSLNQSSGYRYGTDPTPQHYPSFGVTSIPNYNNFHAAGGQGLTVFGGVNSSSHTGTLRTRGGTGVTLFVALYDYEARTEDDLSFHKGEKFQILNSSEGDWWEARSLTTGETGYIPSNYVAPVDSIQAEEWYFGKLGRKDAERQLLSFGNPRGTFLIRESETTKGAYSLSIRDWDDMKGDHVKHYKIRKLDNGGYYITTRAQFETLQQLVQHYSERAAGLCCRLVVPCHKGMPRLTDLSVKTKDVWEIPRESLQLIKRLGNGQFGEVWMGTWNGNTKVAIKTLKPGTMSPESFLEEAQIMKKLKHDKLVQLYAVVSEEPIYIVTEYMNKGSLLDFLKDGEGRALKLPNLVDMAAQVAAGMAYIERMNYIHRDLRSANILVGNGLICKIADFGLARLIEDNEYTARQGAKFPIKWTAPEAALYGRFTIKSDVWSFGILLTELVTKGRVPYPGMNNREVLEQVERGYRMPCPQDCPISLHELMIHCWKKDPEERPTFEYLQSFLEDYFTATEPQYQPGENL
Sequence of FGFR1 (P11362 whole entry, looked up): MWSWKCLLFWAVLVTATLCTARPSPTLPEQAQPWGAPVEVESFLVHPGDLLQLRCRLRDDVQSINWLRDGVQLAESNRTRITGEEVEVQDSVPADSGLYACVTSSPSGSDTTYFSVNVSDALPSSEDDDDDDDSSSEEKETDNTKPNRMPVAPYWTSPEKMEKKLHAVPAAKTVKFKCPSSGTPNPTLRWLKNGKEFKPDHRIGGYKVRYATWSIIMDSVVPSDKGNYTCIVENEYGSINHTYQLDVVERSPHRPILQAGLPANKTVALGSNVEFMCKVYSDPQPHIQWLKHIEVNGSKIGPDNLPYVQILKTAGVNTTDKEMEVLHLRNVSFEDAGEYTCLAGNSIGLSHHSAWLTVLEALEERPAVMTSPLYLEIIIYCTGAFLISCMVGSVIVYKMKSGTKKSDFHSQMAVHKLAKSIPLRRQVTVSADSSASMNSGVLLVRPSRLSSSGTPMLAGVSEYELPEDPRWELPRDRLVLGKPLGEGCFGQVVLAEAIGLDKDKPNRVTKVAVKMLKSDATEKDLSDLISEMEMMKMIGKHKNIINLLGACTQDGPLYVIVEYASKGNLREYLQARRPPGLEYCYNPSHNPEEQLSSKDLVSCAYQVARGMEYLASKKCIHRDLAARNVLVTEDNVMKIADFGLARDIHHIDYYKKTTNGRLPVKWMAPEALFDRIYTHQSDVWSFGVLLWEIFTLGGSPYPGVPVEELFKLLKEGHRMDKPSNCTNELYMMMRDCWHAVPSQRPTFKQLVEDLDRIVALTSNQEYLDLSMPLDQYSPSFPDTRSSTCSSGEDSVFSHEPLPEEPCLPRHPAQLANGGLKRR
Sequence of EPHB2 (P29323 whole entry, looked up): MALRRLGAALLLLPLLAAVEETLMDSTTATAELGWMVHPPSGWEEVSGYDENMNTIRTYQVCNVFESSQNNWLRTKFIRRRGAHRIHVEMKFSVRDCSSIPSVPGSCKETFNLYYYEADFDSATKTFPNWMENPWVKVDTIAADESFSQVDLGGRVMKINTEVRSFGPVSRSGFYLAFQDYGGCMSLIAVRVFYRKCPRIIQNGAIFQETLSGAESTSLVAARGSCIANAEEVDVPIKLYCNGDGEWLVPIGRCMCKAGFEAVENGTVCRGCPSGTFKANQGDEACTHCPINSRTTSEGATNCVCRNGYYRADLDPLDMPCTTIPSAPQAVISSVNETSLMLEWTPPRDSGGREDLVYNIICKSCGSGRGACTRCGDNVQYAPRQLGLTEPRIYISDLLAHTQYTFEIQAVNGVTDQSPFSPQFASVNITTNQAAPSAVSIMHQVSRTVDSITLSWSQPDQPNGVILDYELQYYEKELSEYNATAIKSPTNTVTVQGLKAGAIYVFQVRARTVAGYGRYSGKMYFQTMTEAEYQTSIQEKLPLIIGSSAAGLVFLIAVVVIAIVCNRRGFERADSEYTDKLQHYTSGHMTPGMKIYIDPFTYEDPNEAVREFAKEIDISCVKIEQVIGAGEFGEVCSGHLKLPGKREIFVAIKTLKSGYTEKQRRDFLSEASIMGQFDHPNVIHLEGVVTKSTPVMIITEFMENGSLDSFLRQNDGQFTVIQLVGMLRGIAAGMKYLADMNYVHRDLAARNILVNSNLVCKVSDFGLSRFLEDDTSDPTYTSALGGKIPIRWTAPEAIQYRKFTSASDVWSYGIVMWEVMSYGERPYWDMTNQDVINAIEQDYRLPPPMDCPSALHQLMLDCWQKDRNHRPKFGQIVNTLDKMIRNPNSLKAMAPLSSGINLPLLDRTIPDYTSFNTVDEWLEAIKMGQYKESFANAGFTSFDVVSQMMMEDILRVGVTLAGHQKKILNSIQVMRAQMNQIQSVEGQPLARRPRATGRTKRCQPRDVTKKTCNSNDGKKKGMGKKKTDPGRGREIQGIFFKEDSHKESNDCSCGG

Take IRGNMYFENSF [EGFR_Y112_YF]: the phosphorylation enrichment with Hck turned out to be 0.457; in the data set with FGFR3 it was 0.713; in the data set with Jak2, 0.841; with Fyn, 0.438; in the data set on AncSZ, 0.879; in the data set with MERTK, 0.536. Moreover, the phosphorylation enrichment was determined as 0.514 in the data set with FGFR1; 0.547 with EPHB2; 0.581 with EPHB1; 0.527 in the data set on Fer (mouse); 0.395 in the data set with c-Src; 1.07 in the data set with Fes. The phosphorylation enrichment in the data set with c-Abl (mouse) came out at 0.583. Also, the SH2 binding enrichment worked out at 0.606 with c-Src SH2, 0.895 with Grb2 SH2 and 1.05 with SHP2-C SH2.
Turning to SVDRDYVLKSA [HTATIP2_Y111_R106S], the phosphorylation enrichment was found to be 0.399 with Hck; 0.54 in the data set with FGFR3; 0.571 with Jak2; 0.439 in the data set with Fyn; 0.66 in the data set on AncSZ; 0.4 in the data set with MERTK. For the same sequence, the phosphorylation enrichment was determined as 0.487 with FGFR1; 0.403 with EPHB2; 0.546 with EPHB1; 0.403 in the data set with Fer (mouse); 0.426 with c-Src; 0.755 with Fes. The phosphorylation enrichment with c-Abl (mouse) turned out to be 0.699. Further, the SH2 binding enrichment was found to be 0.387 with c-Src SH2, 0.74 with Grb2 SH2 and 0.927 with SHP2-C SH2.
In the case of LYSGDCYRIQG [DDR2_Y740_Y740C], the phosphorylation enrichment in the data set with Hck turned out to be 1.16; with FGFR3, 1.11; in the data set with Jak2, 1.04; with Fyn it was 1.18; with AncSZ it was 1.05; with MERTK it was 6.98. The phosphorylation enrichment with FGFR1 is 0.956; in the data set with EPHB2 it was 1.3; with EPHB1, 1.8; in the data set on Fer (mouse) it was 0.73; in the data set on c-Src it was 1.22; with Fes, 1.18. The phosphorylation enrichment in the data set on c-Abl (mouse) was 0.808. The SH2 binding enrichment amounted to 0.522 with c-Src SH2, 0.828 with Grb2 SH2 and 0.701 with SHP2-C SH2.
With NTYENYWPFYQ [GATM_Y103_K102N], the phosphorylation enrichment turned out to be 7.34 in the data set with Hck; 12.4 in the data set with FGFR3; 5.55 in the data set with Jak2; 9.01 with Fyn; 2.72 in the data set on AncSZ; 9.93 with MERTK. Also, the phosphorylation enrichment with FGFR1 is 14.3; with EPHB2, 22.2; with EPHB1, 17.2; with Fer (mouse) it was 8.56; in the data set with c-Src, 7.27; with Fes it was 4.54. Besides, in the data set with c-Abl (mouse), the phosphorylation enrichment was determined as 2.79. The SH2 binding enrichment is 2.78 with c-Src SH2, 9.03 in the data set with Grb2 SH2 and 1.81 with SHP2-C SH2.
Regarding DSSIRYLQEIY [FGG_Y135], the phosphorylation enrichment in the data set with Hck is 0.948; with FGFR3, 0.655; with Jak2, 0.733; with Fyn, 0.776; in the data set on AncSZ it was 0.893; with MERTK, 0.438. The phosphorylation enrichment with FGFR1 was found to be 0.59; with EPHB2 it was 0.585; in the data set with EPHB1, 0.587; in the data set on Fer (mouse), 0.549; in the data set on c-Src, 1.14; with Fes it was 1.02. The phosphorylation enrichment in the data set with c-Abl (mouse) turned out to be 0.567. In addition, the SH2 binding enrichment with c-Src SH2 was found to be 0.526; in the data set with Grb2 SH2, 0.935; in the data set with SHP2-C SH2, 0.629.
On to SIYKDYYRYNF [PLA2G2D_Y85], for which the phosphorylation enrichment came out at 3.09 with Hck; 11.1 in the data set with FGFR3; 8.28 with Jak2; 4.34 in the data set with Fyn; 1.39 with AncSZ; 5.06 with MERTK. The phosphorylation enrichment with FGFR1 was found to be 13.6; with EPHB2 it was 5.61; with EPHB1, 5.65; in the data set with Fer (mouse), 1.32; in the data set on c-Src it was 4.42; with Fes, 0.918. Besides, the phosphorylation enrichment in the data set with c-Abl (mouse) amounted to 5.64. Further, the values for the SH2 binding enrichment in the data set with c-Src SH2, with Grb2 SH2 and with SHP2-C SH2 were 0.908, 0.983 and 1.92, respectively.
Regarding VNFDDYTVNLG [GFPT1_Y367], the phosphorylation enrichment with Hck is 0.528; with FGFR3, 0.741; in the data set with Jak2 it was 1.39; in the data set with Fyn, 0.833; with AncSZ it was 1.39; with MERTK it was 0.487. The phosphorylation enrichment with FGFR1 turned out to be 0.705; in the data set with EPHB2, 0.691; with EPHB1, 0.787; in the data set on Fer (mouse), 0.493; in the data set on c-Src it was 1.19; with Fes, 1.2. Moreover, the phosphorylation enrichment with c-Abl (mouse) is 0.69. For the same sequence, the results for the SH2 binding enrichment with c-Src SH2, in the data set with Grb2 SH2 and with SHP2-C SH2 were 0.408, 0.651 and 0.715, respectively.
WKKEIYEESST [MOCS2_Y170]: the phosphorylation enrichment in the data set with Hck was 0.488; with FGFR3, 0.661; with Jak2, 1.18; with Fyn it was 0.424; in the data set on AncSZ, 1.04; with MERTK, 0.378. In addition, the phosphorylation enrichment with FGFR1 was determined as 2.85; with EPHB2 it was 0.603; with EPHB1, 0.422; in the data set on Fer (mouse), 0.471; in the data set with c-Src, 0.485; with Fes, 1.17. In addition, the phosphorylation enrichment in the data set with c-Abl (mouse) was 0.83. Also, the SH2 binding enrichment with c-Src SH2 was found to be 0.448; in the data set with Grb2 SH2 it was 0.776; with SHP2-C SH2 it was 0.535.
